Test results taken from US20210113690A1 (BERLIN CHEMIE, published 2021).

How the values were obtained:
[1] = biological target: T1, KKLSRLTY; test: peptide microarray, 8mer on the chip, 1 µg/mL LY75_A1, anti-human IgG Alexa 647
T1 construct: LY75 8mer on the microarray
T1 peptide: KKLSRLTY
Description: (§1) The peptide microarray analysis was performed by LC Sciences, Houston Tex., in brief the method comprised the following steps: —Contiguous 8mer peptides of LY75 protein having […] spanning residues 216 to 1666 of the full length LY75 protein were synthesized and immobilized on a microarray chip. The chip comprised three panels such that the experiment was performed in triplicate. […] The binding assay was performed under the following conditions:—
(§2) The microarray comprising the contiguous peptides in triplicate was washed with 1 mL of binding buffer at 4° C. for 20 min. […] The array was again washed with 0.5 mL of washing buffer at 4° C. for 30 min then incubated with 25 ng/mL anti-human IgG Alexa 647 conjugate in binding buffer (pH 7.0) at 4° C. for 1 hr. The array was again washed with 0.5 mL of washing buffer at 4° C. for 30 min.

[2] = biological target: T2, EAVYFHQH; test: as above
T2 construct: LY75 8mer on the microarray
T2 peptide: EAVYFHQH
Description: as §1, §2

[3] = biological target: T3, DDHFTYSR; test: as above
T3 construct: LY75 8mer on the microarray
T3 peptide: DDHFTYSR
Description: as §1, §2

[4] = biological target: T4, SRWIQYKG; test: as above
T4 construct: LY75 8mer on the microarray
T4 peptide: SRWIQYKG
Description: as §1, §2

[5] = biological target: T5, GSRWIQYK; test: as above
T5 construct: LY75 8mer on the microarray
T5 peptide: GSRWIQYK
Description: as §1, §2

[6] = biological target: T6, NGSRWIQY; test: as above
T6 construct: LY75 8mer on the microarray
T6 peptide: NGSRWIQY
Description: as §1, §2

[7] = biological target: T7, GWHFYDDR (765-772) (human); test: as above
T7 construct: Tryptic peptide of recombinant LY75, found by LC-MS/MS after pull down
T7 peptide: GWHFYDDR
Description: as §1, §2

[8] = biological target: T8, AVYFHQHS; test: as above
T8 construct: LY75 8mer on the microarray
T8 peptide: AVYFHQHS
Description: as §1, §2

[9] = biological target: T9, DREFIYLR; test: as above
T9 construct: LY75 8mer on the microarray; aa 771-778 counted from Region 3 (aa761-780)
T9 peptide: DREFIYLR
Description: as §1, §2

[10] = biological target: T10, VSLCQKYS; test: as above
T10 construct: LY75 8mer on the microarray
T10 peptide: VSLCQKYS
Description: as §1, §2

[11] = biological target: T11, SERHFVSL; test: as above
T11 construct: LY75 8mer on the microarray
T11 peptide: SERHFVSL
Description: as §1, §2

[12] = biological target: T12, PWRRGWHF; test: as above
T12 construct: LY75 8mer on the microarray
T12 peptide: PWRRGWHF
Description: as §1, §2

[13] = biological target: T13, VKYLNNLY; test: as above
T13 construct: LY75 8mer on the microarray
T13 peptide: VKYLNNLY
Description: as §1, §2

[14] = biological target: T14, ELTYSNFH; test: as above
T14 construct: LY75 8mer on the microarray
T14 peptide: ELTYSNFH
Description: as §1, §2

[15] = biological target: T15, YFHQHSIL; test: as above
T15 construct: LY75 8mer on the microarray
T15 peptide: YFHQHSIL
Description: as §1, §2

[16] = biological target: T16, RRGWHFYD; test: as above
T16 construct: LY75 8mer on the microarray; aa 763-770 counted from Region 3 (aa761-780)
T16 peptide: RRGWHFYD
Description: as §1, §2

[17] = biological target: T17, FTSCSERH; test: as above
T17 construct: LY75 8mer on the microarray
T17 peptide: FTSCSERH
Description: as §1, §2

[18] = biological target: T18, YPWHRFPV; test: as above
T18 construct: LY75 8mer on the microarray
T18 peptide: YPWHRFPV
Description: as §1, §2

[19] = biological target: T19, YLNNLYKI; test: as above
T19 construct: LY75 8mer on the microarray
T19 peptide: YLNNLYKI
Description: as §1, §2

[20] = biological target: T20, RWIQYKGH; test: as above
T20 construct: LY75 8mer on the microarray
T20 peptide: RWIQYKGH
Description: as §1, §2

[21] = biological target: T21, RELTYSNF; test: as above
T21 construct: LY75 8mer on the microarray
T21 peptide: RELTYSNF
Description: as §1, §2

[22] = biological target: Contiguous 8mer peptides of LY75 protein spanning residues 216 to 1666 of the full length LY75 protein (peptide microarray); test: peptide microarray, 1 ug/mL LY75_A1, scanned at 635 nm; cut off for non-specific binding 3000
[23] = biological target: T22, LY75 (DEC-205) on COLO205 cells (human, UniProt O60449 28-1722); test: competitive FACS on COLO205 cells; competitor anti-LY75-mAb-MCC-DM1
T22 construct: also called Lymphocyte antigen 75
T22 sequence (O60449 28-1722 limits assumed): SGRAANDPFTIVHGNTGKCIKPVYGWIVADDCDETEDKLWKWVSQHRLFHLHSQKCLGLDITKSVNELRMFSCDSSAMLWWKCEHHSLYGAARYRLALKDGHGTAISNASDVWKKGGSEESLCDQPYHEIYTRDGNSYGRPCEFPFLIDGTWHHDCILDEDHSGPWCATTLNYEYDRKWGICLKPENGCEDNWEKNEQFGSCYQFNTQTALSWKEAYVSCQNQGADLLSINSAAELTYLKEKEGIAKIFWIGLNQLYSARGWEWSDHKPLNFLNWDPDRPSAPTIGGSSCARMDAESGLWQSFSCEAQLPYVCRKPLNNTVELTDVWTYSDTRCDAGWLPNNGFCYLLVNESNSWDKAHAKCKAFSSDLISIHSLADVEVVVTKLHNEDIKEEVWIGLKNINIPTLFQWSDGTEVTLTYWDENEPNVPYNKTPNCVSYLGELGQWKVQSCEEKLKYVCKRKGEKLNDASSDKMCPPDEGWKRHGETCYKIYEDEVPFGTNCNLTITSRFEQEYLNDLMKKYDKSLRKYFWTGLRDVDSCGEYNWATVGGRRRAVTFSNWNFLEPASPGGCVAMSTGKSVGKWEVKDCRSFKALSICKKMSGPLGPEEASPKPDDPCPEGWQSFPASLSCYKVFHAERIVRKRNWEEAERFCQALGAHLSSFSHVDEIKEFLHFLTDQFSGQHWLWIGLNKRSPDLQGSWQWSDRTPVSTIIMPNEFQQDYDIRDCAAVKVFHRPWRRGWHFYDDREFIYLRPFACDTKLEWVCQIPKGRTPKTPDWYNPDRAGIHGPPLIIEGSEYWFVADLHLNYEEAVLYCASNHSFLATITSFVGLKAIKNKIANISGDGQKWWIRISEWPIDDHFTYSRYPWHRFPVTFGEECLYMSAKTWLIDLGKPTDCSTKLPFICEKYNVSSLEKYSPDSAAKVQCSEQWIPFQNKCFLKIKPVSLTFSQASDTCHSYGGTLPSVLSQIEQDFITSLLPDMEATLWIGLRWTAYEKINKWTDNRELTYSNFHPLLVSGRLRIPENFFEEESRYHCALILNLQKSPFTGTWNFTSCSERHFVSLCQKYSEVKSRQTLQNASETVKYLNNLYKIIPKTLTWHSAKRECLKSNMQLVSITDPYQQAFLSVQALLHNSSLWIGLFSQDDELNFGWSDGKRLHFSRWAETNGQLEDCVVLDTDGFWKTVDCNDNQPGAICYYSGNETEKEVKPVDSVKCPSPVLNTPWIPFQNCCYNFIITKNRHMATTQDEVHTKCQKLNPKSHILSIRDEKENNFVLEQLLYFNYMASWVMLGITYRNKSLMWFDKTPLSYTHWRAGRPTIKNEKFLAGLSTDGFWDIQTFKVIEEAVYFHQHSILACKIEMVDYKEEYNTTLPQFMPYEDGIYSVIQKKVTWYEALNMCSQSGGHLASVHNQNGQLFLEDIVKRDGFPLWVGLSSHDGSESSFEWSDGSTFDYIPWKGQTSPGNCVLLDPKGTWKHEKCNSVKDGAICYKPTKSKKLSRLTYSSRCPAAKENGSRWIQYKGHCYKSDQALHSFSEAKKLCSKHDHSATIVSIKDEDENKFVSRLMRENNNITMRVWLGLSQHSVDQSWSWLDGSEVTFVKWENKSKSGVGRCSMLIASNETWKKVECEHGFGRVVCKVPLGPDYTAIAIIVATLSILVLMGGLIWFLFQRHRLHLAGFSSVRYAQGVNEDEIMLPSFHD
Description: Cells were washed and resuspended in FACS buffer (PBS+2% FBS), neutralized with growth media, and counted. Cells were plated at 50,000 cells per well in a V Bottom 96-well plate. Cells were washed once with FACS buffer (PBS (Fisher, catalog #SH30028-03)+2% FBS). […] Test wells that required single or multiple staining steps were left in FACS buffer as appropriate to ensure the final staining was completed simultaneously for all conditions tested. Two wells were left unstained in FACS buffer as controls.
After the incubation with blocking antibody, cells were washed twice in FACS buffer. […] The cells were washed as above and resuspended in FACS buffer plus 1 μg/ml mouse anti-maytansine antibody and incubated in ice for 45 minutes. The cells were washed as above and resuspended in FACS buffer containing 2 ug/ml goat anti-mouse kappa RPE. The cells were incubated on ice for 45 minutes then washed as above. The cells were resuspended in FACS buffer at 200 μl per well. Mean fluorescence intensity of each sample was determined using a Guava EasyCyte Plus HT Flow Cytometer (96 well plate formats) and the raw data was analyzed using the Guava Cytosoft.

[24] = biological target: T23, LY75 761-780 (human); test: peptide microarray; region identified by signal above the cut off
T23 construct: Region put together from overlapping 8mers on the array; also called Region 3 (aa761-780)
T23 peptide: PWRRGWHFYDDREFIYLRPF
Description: as §1, §2

[25] = biological target: T24, LY75 1029-1040 (human); test: as above
T24 construct: Region put together from overlapping 8mers on the array
T24 peptide: RELTYSNFHPLL
Description: as §1, §2

[26] = biological target: T25, LY75 1107-1118 (human); test: as above
T25 construct: Region put together from overlapping 8mers on the array
T25 peptide: TVKYLNNLYKII
Description: as §1, §2

B1: LY75_A1 monoclonal antibody (antibody, human IgG1, kappa, V domains shown)
VH: EVQLVESGGGLVKPGGSLRLSCAASGFTYSNAWMSWVRQAPGKGLEWVGRIKSKTDGGTTDYAAPVQGRFTISRDDSKNTLYLQMNSLKTEDTAVYYCTIFGVVSFDYWGQGTLVTVSS
VL: DVQMTQSPSSLSASVGDRVTITCRASQSISDYLSWYQQRPGKAPNLLIYAASNLKTGVPSRFSGSGSGTDFTLTISTLQPEDFATYYCQQSYRSPWTFGQGTKVEIKR
notes: also called LY75A1 antibody; antibody LY75_A1
- binding result [1]: binds
- binding result [2]: binds
- binding result [3]: binds
- binding result [4]: binds
- binding result [5]: binds
- binding result [6]: binds
- binding result [7]: binds
- binding result [8]: binds
- binding result [9]: binds
- binding result [10]: binds
- binding result [11]: binds
- binding result [12]: binds
- binding result [13]: binds
- binding result [14]: binds
- binding result [15]: binds
- binding result [16]: binds
- binding result [17]: binds
- binding result [18]: binds
- binding result [19]: binds
- binding result [20]: binds
- binding result [21]: binds
- average signal intensity of all spots (signal intensity (scale 1-65535)) [22]: 885
- maximum signal intensity (signal intensity (scale 1-65535)) [22]: 25000
- binding result [23]: binds
- binding result [24]: binds
- binding result [25]: binds
- binding result [26]: binds
